Results as given in article PMC5207070, “The Amino-terminal Domain of the Androgen Receptor Co-opts Extracellular Signal-regulated Kinase (ERK) Docking Sites in ELK1 Protein to Induce Sustained Gene Activation That Supports Prostate Cancer Cell Growth*^([image sbox.jpg])” (The Journal of Biological Chemistry, 2016).

Target: T1, purified full-length human AR (Abcam ab82609) (human, UniProt P10275 1-920)
T1 construct: androgen receptor, human, full length; also called Purified AR; AR polypeptide (ligand)
T1 sequence (looked up): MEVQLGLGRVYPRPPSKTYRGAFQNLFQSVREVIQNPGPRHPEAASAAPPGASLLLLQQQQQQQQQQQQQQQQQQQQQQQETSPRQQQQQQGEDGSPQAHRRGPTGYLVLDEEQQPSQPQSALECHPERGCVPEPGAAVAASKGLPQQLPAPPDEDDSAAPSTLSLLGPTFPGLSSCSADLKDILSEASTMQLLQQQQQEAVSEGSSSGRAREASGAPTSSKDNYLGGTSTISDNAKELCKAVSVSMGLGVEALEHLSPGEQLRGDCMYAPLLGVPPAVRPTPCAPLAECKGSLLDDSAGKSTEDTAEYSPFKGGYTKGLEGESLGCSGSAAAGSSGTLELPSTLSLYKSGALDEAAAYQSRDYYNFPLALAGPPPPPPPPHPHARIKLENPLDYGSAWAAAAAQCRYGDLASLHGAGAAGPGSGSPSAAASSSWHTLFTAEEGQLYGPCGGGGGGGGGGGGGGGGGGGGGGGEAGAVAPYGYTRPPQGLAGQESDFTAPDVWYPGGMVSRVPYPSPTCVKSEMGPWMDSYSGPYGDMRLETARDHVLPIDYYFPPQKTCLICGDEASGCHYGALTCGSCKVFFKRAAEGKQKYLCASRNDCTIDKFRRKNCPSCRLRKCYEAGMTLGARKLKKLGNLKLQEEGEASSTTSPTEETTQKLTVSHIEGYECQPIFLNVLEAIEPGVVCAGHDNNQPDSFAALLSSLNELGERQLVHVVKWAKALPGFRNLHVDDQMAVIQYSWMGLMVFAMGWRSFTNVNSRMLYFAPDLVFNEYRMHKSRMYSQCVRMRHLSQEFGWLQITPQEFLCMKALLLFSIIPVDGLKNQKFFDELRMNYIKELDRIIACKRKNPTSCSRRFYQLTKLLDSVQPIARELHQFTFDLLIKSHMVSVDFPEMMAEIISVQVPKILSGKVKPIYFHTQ
Test: SPR; BIAcore 3000; AR immobilised on a CM5 chip by amine coupling; His-ELK1 (0-160 nM) or mutant ELK1 (100 nM) as analyte; HBS-N buffer; 1:1 Langmuir model; Kd = koff/kon
Conditions: both partners purified

- Kd: 19 nM
B1: His-tagged ELK1 (natural protein, human, UniProt P19419 1-428, looked up)
chain: MDPSVTLWQFLLQLLREQGNGHIISWTSRDGGEFKLVDAEEVARLWGLRKNKTNMNYDKLSRALRYYYDKNIIRKVSGQKFVYKFVSYPEVAGCSTEDCPPQPEVSVTSTMPNVAPAAIHAAPGDTVSGKPGTPKGAGMAGPGGLARSSRNEYMRSGLYSTFTIQSLQPQPPPHPRPAVVLPSAAPAGAAAPPSGSRSTSPSPLEACLEAEEAGLPLQVILTPPEAPNLKSEELNVEPGLGRALPPEVKVEGPKEELEVAGERGFVPETTKAEPEVPPQEGVPARLPAVVMDTAGQAGGHAASSPEISQPQKGRKPRDLELPLSPSLLGGPGPERTPGSGSGSGLQAPGPALTPSLLPTHTLTPVLLTPSSLPPSIHFWSTLSPIAPRSPAKLSFQFPSSGSAQVHIPSISVDGLSTPVVLSPGPQKP
notes: ELK1, recombinant; Construct details are in the supplemental material; also called purified ELK1
